B1: BBSome complex member BBS4 (Homo sapiens), Q96RK4 (parent)
chain: MAEERVATRTQFPVSTESQKPRQKKAPEFPILEKQNWLIHLHYIRKDYEACKAVIKEQLQETQGLCEYAIYVQALIFRLEGNIQESLELFQTCAVLSPQSADNLKQVARSLFLLGKHKAAIEVYNEAAKLNQKDWEISHNLGVCYIYLKQFNKAQDQLHNALNLNRHDLTYIMLGKIHLLEGDLDKAIEVYKKAVEFSPENTELLTTLGLLYLQLGIYQKAFEHLGNALTYDPTNYKAILAAGSMMQTHGDFDVALTKYRVVACAVPESPPLWNNIGMCFFGKKKYVAAISCLKRANYLAPFDWKILYNLGLVHLTMQQYASAFHFLSAAINFQPKMGELYMLLAVALTNLEDIENAKRAYAEAVHLDKCNPLVNLNYAVLLYNQGEKKNALAQYQEMEKKVSLLKDNSSLEFDSEMVEMAQKLGAALQVGEALVWTKPVKDPKSKHQTTSTSKPASFQQPLGSNQALGQAMSSAAAYRTLPSGAGGTSQFTKPPSLPLEPEPAVESSPTETSEQIREK
partner: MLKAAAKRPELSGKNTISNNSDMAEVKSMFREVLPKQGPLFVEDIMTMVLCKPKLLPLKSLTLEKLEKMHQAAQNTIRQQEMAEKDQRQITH

Variants of: B1
Settings: with bbip1_human BBIP1, A8MTZ0

Row | Variant | effect of a mutation on the interaction
1 | MAEERVATRTQFPVSTESQKPRQKKAPEFPILEKQNWLIHLHYIRKDYEACKAVIKEQLQETQGLCEYAIYVQALIFRLEGNIQESLELFQTCAVLSPQSADNLKQVARSLFLLGKHKAAIEVYNEAAKLNQKDWEISHNLGVCYIYLKQFNKAQDQLHNALNLNRHDLTYIMLGKIHLLEGDLDKAIEVYKKAVEFSPENTELLTTLGLLYLQLGIYQKAFEHLGNALTYDPTNYKAILAAGSMMQTHGDFDVALTKYRVVACAVPESPPLWNNIGMCFFGKKKYVAAISCLKRANYLAPFDWKILYNLGLVHLTMQQYASAFHFLSAAINFQPKMGELYMLLAVALTNLEDIENAKRAYAEAVHLDKCNPLVNLNYAVLLYNQGEKKNALAQYQEMEKKVSLLKDNSSLEFDSKMVEMAQKLGAALQVGEALVWTKPVKDPKSKHQTTSTSKPASFQQPLGSNQALGQAMSSAAAYRTLPSGAGGTSQFTKPPSLPLEPEPAVESSPTETSEQIREK [E416K] | with no effect
2 | MAEERVATRTQFPVSTESQKPRQKKAPEFPILEKQNWLIHLHYIRKDYEACKAVIKEQLQETQGLCEYAIYVQALIFRLEGNIQESLELFQTCAVLSPQSADNLKQVARSLFLLGKHKAAIEVYNEAAKLNQKDWEISHNLGVCYIYLKQFNKAQDQLHNALNLNRHDLTYIMLGKIHLLEGDLDKAIEVYKKAVEFSPENTELLTTLGLLYLQLGIYQKAFEHLGNALTYDPTNYKAILAAGSMMQTHGDFDVALTKYRVVACAVPESPPLWNNIGMCFFGKKKYVAAISCLKRANYLAPFDWKILYNLGLVHLTMQQYASAFHFLSAAINFQPKMGELYMLLAVALTNLEDIENAKRAYAEAVHLDKCNKLVNLNYAVLLYNQGEKKNALAQYQEMEKKVSLLKDNSSLEFDSEMVEMAQKLGAALQVGEALVWTKPVKDPKSKHQTTSTSKPASFQQPLGSNQALGQAMSSAAAYRTLPSGAGGTSQFTKPPSLPLEPEPAVESSPTETSEQIREK [P372K] | with no effect
3 | MAEERVATRTQFPVSTESQKPRQKKAPEFPILEKQNWLIHLHYIRKDYEACKAVIKEQLQETQGLCEYAIYVQALIFRLEGNIQESLELFQTCAVLSPQSADNLKQVARSLFLLGKHKAAIEVYNEAAKLNQKDWEISHNLGVCYIYLKQFNKAQDQLHNALNLNRHDLTYIMLGKIHLLEGDLDKAIEVYKKAVEFSPENTELLTTLGLLYLQLGIYQKAFEHLGNALTYDPTNYKAILAAGSMMQTHGDFDVALTKYRVVACAVPESPPLWNNIGMCFFGKKKYVAAISCLKRANYLAPFDWKILYNLGLVHLTMQQYASAFHFLSAAINFQPKMGELYMLLAVALTNLEDIENAKRAYAEAVHLDKCNPLVNLNYAVLLYNQGEKKNALAQYQEMEKKVSLLKDNSSLEFDSEMVEKAQKLGAALQVGEALVWTKPVKDPKSKHQTTSTSKPASFQQPLGSNQALGQAMSSAAAYRTLPSGAGGTSQFTKPPSLPLEPEPAVESSPTETSEQIREK [M420K] | with no effect
4 | MAEERVATRTQFPVSTESQKPRQKKAPEFPILEKQNWLIHLHYIRKDYEACKAVIKEQLQETQGLCEYAIYVQALIFRLEGNIQESLELFQTCAVLSPQSADNLKQVARSLFLLGKHKAAIEVYNEAAKLNQKDWEISHNLGVCYIYLKQFNKAQDQLHNALNLNRHDLTYIMLGKIHLLEGDLDKAIEVYKKAVEFSPENTELLTTLGLLYLQLGIYQKAFEHLGNALTYDPTNYKAILAAGSMMQTHGDFDVALTKYRVVACAVPESPPLWNNIGMCEFGKKKYVAAISCLKRANYLAPFDWKILYNLGLVHLTMQQYASAFHFLSAAINFQPKMGELYMLLAVALTNLEDIENAKRAYAEAVHLDKCNPLVNLNYAVLLYNQGEKKNALAQYQEMEKKVSLLKDNSSLEFDSEMVEMAQKLGAALQVGEALVWTKPVKDPKSKHQTTSTSKPASFQQPLGSNQALGQAMSSAAAYRTLPSGAGGTSQFTKPPSLPLEPEPAVESSPTETSEQIREK [F280E] | with no effect
5 | MAEERVATRTQFPVSTESQKPRQKKAPEFPILEKQNWLIHLHYIRKDYEACKAVIKEQLQETQGLCEYAIYVQALIFRLEGNIQESLELFQTCAVLSPQSADNLKQVARSLFLLGKHKAAIEVYNEAAKLNQKDWEISHNLGVCYIYLKQFNKAQDQLHNALNLNRHDLTYIMLGKIHLLEGDLDKAIEVYKKAVEFSPENTELLTTLGLLYLQLGIYQKAFEHLGNALTYDPTNYKAILAAGSMMQTHGDFDVALTKYRVVACAVPESPPLWNNIGMCFFGKKKYVAAISCLKRANYLAPFDWKILYNLGLVHLTMQQYASAFHFLSAAINFQPKMGELYMLLAVALTNLEDIENAKRAYAEAVHLDKCNPLVNLNYAVLLYNQGEKKNALAQYQEMEKKVSLLKDNSSLEFDSEMVEMAQKLGAALQVGEALVWTKPVKDPKSKHQTTSTSKPASFQQPLGSNQALGQAMSSAAAYRTLPSGAGGTSQFKKPPSLPLEPEPAVESSPTETSEQIREK [T492K] | with no effect
6 | MAEERVATRTQFPVSTESQKPRQKKAPEFPILEKQNWLIHLHYIRKDYEACKAVIKEQLQETQGLCEYAIYVQALIFRLEGNIQESLELFQTCAVLSPQSADNLKQVARSLFLLGKHKAAIEVYNEAAKLNQKDWEISHNLGVCYIYLKQFNKAQDQLHNALNLNRHDLTYIMLGKIHLLEGDLDKAIEVYKKAVEFSPENTELLTTLGLLYLQLGIYQKAFEHLGNALTYDPTNYKAILAAGSMMQTHGDFDVALTKYRVVACAVPESPPLWNNIGMCFFGKKKYVAAISCLKRANYLAPFDWKKLYNLGLVHLTMQQYASAFHFLSAAINFQPKMGELYMLLAVALTNLEDIENAKRAYAEAVHLDKCNPLVNLNYAVLLYNQGEKKNALAQYQEMEKKVSLLKDNSSLEFDSEMVEMAQKLGAALQVGEALVWTKPVKDPKSKHQTTSTSKPASFQQPLGSNQALGQAMSSAAAYRTLPSGAGGTSQFTKPPSLPLEPEPAVESSPTETSEQIREK [I306K] | with no effect
7 | MAEERVATRTQFPVSTESQKPRQKKAPEFPILEKQNWLIHLHYIRKDYEACKAVIKEQLQETQGLCEYAIYVQALIFRLEGNIQESLELFQTCAVLSPQSADNLKQVARSLFLLGKHKAAIEVYNEAAKLNQKDWEISHNLGVCYIYLKQFNKAQDQLHNALNLNRHDLTYIMLGKIHLLEGDLDKAIEVYKKAVEFSPENTELLTTLGLLYLQLGIYQKAFEHLGNALTYDPTNYKAILAAGSMMQTHGDFDVALTKYRVVACAVPESPPLWNNIGMCFFGKKKYVAAISCLKRANYLAAFDWKILYNLGLVHLTMQQYASAFHFLSAAINFQPKMGELYMLLAVALTNLEDIENAKRAYAEAVHLDKCNPLVNLNYAVLLYNQGEKKNALAQYQEMEKKVSLLKDNSSLEFDSEMVEMAQKLGAALQVGEALVWTKPVKDPKSKHQTTSTSKPASFQQPLGSNQALGQAMSSAAAYRTLPSGAGGTSQFTKPPSLPLEPEPAVESSPTETSEQIREK [P301A] | with no effect
8 | MAEERVATRTQFPVSTESQKPRQKKAPEFPILEKQNWLIHLHYIRKDYEACKAVIKEQLQETQGLCEYAIYVQALIFRLEGNIQESLELFQTCAVLSPQSADNLKQVARSLFLLGKHKAAIEVYNEAAKLNQKDWEISHNLGVCYIYLKQFNKAQDQLHNALNLNRHDLTYIMLGKIHLLEGDLDKAIEVYKKAVEFSPENTELLTTLGLLYLQLGIYQKAFEHLGNALTYDPTNYKAILAAGSMMQTHGDFDVALTKYRVVACAVPESPPLWNNIGMCFFGKKKYVAAISCLKRANYLAPFDWKILYNLGLVHLTMQQYASAFHFLSAAINFQPKMGELYMLLAVALTNLEDIENAKRAYAEAVHLDKCNPLVNLNYAVLLYNQGEKKNALAQYQEMEKKVSELKDNSSLEFDSEMVEMAQKLGAALQVGEALVWTKPVKDPKSKHQTTSTSKPASFQQPLGSNQALGQAMSSAAAYRTLPSGAGGTSQFTKPPSLPLEPEPAVESSPTETSEQIREK [L404E] | with no effect
9 | MAEERVATRTQFPVSTESQKPRQKKAPEFPILEKQNWLIHLHYIRKDYEACKAVIKEQLQETQGLCEYAIYVQALIFRLEGNIQESLELFQTCAVLSPQSADNLKQVARSLFLLGKHKAAIEVYNEAAKLNQKDWEISHNLGVCYIYLKQFNKAQDQLHNALNLNRHDLTYIMLGKIHLLEGDLDKAIEVYKKAVEFSPENTELLTTLGLLYLQLGIYQKAFEHLGNALTYDPTNYKAILAAGSMMQTHGDFDVALTKYRVVACAVPESPPLWNNIGMCFFGKKKYVAAISCLKRANYLAPFDWKILYNLGLVHLTMQQYASAFHFLSAAINFQPKMGELYMLLAVALTNLEDIENAKRAYAEAVHLDKCNPLVNLNYAVLLYNQGEKKNALAQYQEMEKKVSLLKDNSSAEFDSEMVEMAQKLGAALQVGEALVWTKPVKDPKSKHQTTSTSKPASFQQPLGSNQALGQAMSSAAAYRTLPSGAGGTSQFTKPPSLPLEPEPAVESSPTETSEQIREK [L411A] | with no effect
10 | MAEERVATRTQFPVSTESQKPRQKKAPEFPILEKQNWLIHLHYIRKDYEACKAVIKEQLQETQGLCEYAIYVQALIFRLEGNIQESLELFQTCAVLSPQSADNLKQVARSLFLLGKHKAAIEVYNEAAKLNQKDWEISHNLGVCYIYLKQFNKAQDQLHNALNLNRHDLTYIMLGKIHLLEGDLDKAIEVYKKAVEFSPENTELLTTLGLLYLQLGIYQKAFEHLGNALTYDPTNYKAILAAGSMMQTHGDFDVALTKYRVVACAVPESPPLWNNIGMCFFGKKKYVAAISCLKRANYLAPFDWKILYNLGLVHLTMQQYASAFHFLSAAINFAPKMGELYMLLAVALTNLEDIENAKRAYAEAVHLDKCNPLVNLNYAVLLYNQGEKKNALAQYQEMEKKVSLLKDNSSLEFDSEMVEMAQKLGAALQVGEALVWTKPVKDPKSKHQTTSTSKPASFQQPLGSNQALGQAMSSAAAYRTLPSGAGGTSQFTKPPSLPLEPEPAVESSPTETSEQIREK [Q334A] | with no effect
11 | MAEERVATRTQFPVSTESQKPRQKKAPEFPILEKQNWLIHLHYIRKDYEACKAVIKEQLQETQGLCEYAIYVQALIFRLEGNIQESLELFQTCAVLSPQSADNLKQVARSLFLLGKHKAAIEVYNEAAKLNQKDWEISHNLGVCYIYLKQFNKAQDQLHNALNLNRHDLTYIMLGKIHLLEGDLDKAIEVYKKAVEFSPENTELLTTLGLLYLQLGIYQKAFEHLGNALTYDPTNYKAILAAGSMMQTHGDFDVALTKYRVVACAVPESPPLWNNIGMCFFGKKKYVAAISCLKRANYLAPFDWKILYNLGLVHLTMQQYASAFHFLSAAINFQPKMGELYMLLAVALTNLEDIENAKRAYAEAVHLDKCNPLVNLNYAVLLYNQGEKKNALAQYQEMEKKVSLLKDNSSLEFDSEMVEMAQKLGAALQVGEALVWTKPVKDPKSKHQTTSTEKPASFQQPLGSNQALGQAMSSAAAYRTLPSGAGGTSQFTKPPSLPLEPEPAVESSPTETSEQIREK [S453E] | with no effect
12 | MAEERVATRTQFPVSTESQKPRQKKAPEFPILEKQNWLIHLHYIRKDYEACKAVIKEQLQETQGLCEYAIYVQALIFRLEGNIQESLELFQTCAVLSPQSADNLKQVARSLFLLGKHKAAIEVYNEAAKLNQKDWEISHNLGVCYIYLKQFNKAQDQLHNALNLNRHDLTYIMLGKIHLLEGDLDKAIEVYKKAVEFSPENTELLTTLGLLYLQLGIYQKAFEHLGNALTYDPTNYKAILAAGSMMQTHGDFDVALTKYRVVACAVPESPPLWNNIGMCFFGKKKYVAAISCLKRANYLAPFDWKILYNLGLVHLTMQQYASAFHFLSAAINFQPKMGELYMLLAVALTNLEDIENAKRAYAEAVHLDKCNPLVNLNYAVLLYNQGEKKNALAQYQEMEKKVSLLKDNSSLEFDSEMVEMAQKLGAALQVGEALVWTKPVKDPKSKHQTTSTSKPASFQQPLGSNQALGQAMSSAAAYRTLPSGAAGTSQFTKPPSLPLEPEPAVESSPTETSEQIREK [G486A] | with no effect

Reference: IntAct's records for PubMed 29039417
